The source of these data is the nanobody polyreactivity screen of Harvey et al. (2022).

This series can be described thus: yeast display, Sf9 membrane polyspecificity reagent, FACS + sequencing; frameworks hold sequencing errors. Summed up: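 After 36–48 hours of galactose induction, yeast (Saccharomyces cerevisiae BJ5465) displaying a synthetic nanobody library were stained at 4 °C for 1 hour with 10% biotinylated, detergent-solubilized Sf9 membrane reagent. Streptavidin microbeads enriched the stained cells before FACS sorting into low and high (top ~1%) gates on anti-HA and streptavidin fluorescence. Each clone's polyreactivity label reflects its gate of origin.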
Turning to “QVQLVESGGGLVQAGGSLRLSCAASGLTFPVYTMGWYRQAPGKEREFVAAITYNGGRTYYADSVKGRFTISRDNAKNTVYLQMNSLKPEDTAVYYCAAEYGTYFVRYYAGASYRYGYWGQGTQVTVSS”, the “polyreactivity (PSR sort gate)” value is “low polyreactivity”. In the case of “QVQLVESGGGLVQAGGSLRLSSAASGSTFTRYGMGWYRQAPGKERELVAAITTSGSSTYYADSVKGRFTISRDNAKNTVYLQMNSLKPEDTAVYYCAADWSSWGFDYWGQGTQVTVSS”, the “polyreactivity (PSR sort gate)” value is reported as “low polyreactivity”. Turning to “QVQLVESGGGLVQAGVSLRLSCAASGGIFADYAMGWYRQAPGKERELVAAISSGGNTNYADSVKGRFTISRDNAKNTVYLQMNSLKPEDTAVYYCNRDTSYYRYVYYEGNDYWGQGTQVTVSS”, the “polyreactivity (PSR sort gate)” value was “low polyreactivity”.

As for “QVQLVESGGGLVQAGGSLRLSCAASGRIFGFYAMGWYRQAPGKEREFVAAITWSGTNTYYADSVKGRFTISRDNAKNTVYLQMNSLKPEDTAVYYCNARQYYKYGYWGQGTQVTVSS”, the “polyreactivity (PSR sort gate)” value is “high polyreactivity”. Then “QVQLVESGGGLVQAGGSLRLSCAASGSTFDTNAMGWSRPAPGKEREWVAAITWRGGRTSYADSVKGRFTISRDNAKNTVYLQMNSLKPEDTAVYYCAAGYKFGPPAAGTFSDFDYWGQGTQVTVTS”, with “low polyreactivity”; and “QVQLVESGGGLVQAGGSLRLSCAASGYTFLVYTKGWYRQAPGKERELVATISWSGTSTDYADSVKGRFTISRDNAKNTVYLQMNSLKPEDTAVYYCNAKYPRAYLYGYKLFDSWGQGTQVTVSS”, with “high polyreactivity”; and “QVQLVESGGGLVQAGGSLRLSCAASRSIFPYNVMGWYRQAPGTEMELVAAISTRGGRTYYADSVKGRFTISRDYAKNTVYLQMNSLKPEDTAVYYCATAGGPYSDSGYYWGHGTQVTVSS”, with “high polyreactivity”. For the sequence “QVQLVESGGCLVQAGGSLRLTCAASGFTLGFNAMGWYRQAPGKERELVAAITIGGTTYYADSVKGRFTLSRDNAKNTVYLQMNSLKPEDTAVYYCAASPVWWYDYWGQGTQVTVSS”, the “polyreactivity (PSR sort gate)” value is reported as “low polyreactivity”.

On to “QVQLVESGGGLVQAGGSLRLSCAASGLTFYKNAMGWYRQPPGKERELGAVISSSGGSTYYADSVKGRFTISRDNAKNTVYLQMKSLKPEDTAVYYSARDLYTEYRWGRLTYDYWGQGTQVTVSS”, for which the “polyreactivity (PSR sort gate)” value is reported as “low polyreactivity”.

For the sequence “QVQLVESGGGLVQAGGSLRLSCAASGSTFPYYDMGWYRQAPGKERELVAAISWSGDSTYYADSVKGRFTISRDNAKNTVYLQMNRLKPEDTAVYYCAAYSDYWSYLSTDDYWGQGTQVTVSS”, the “polyreactivity (PSR sort gate)” value is recorded as “low polyreactivity”.

Consider “HVQLQESGGGLVQAGGSLRLSCAASGSISRNYDMGWYRQAPGKEREFVAGISGGAITYYADSVKGRFTISRDNAKNTVYLQMNSLKPEDTAVYYCAADTGVYQYHSYWGQGTQVTVSS”, for which the “polyreactivity (PSR sort gate)” value is recorded as “low polyreactivity”. Take “QVQLVESGGGLVQAGGSLRLSCAASGRTFLYNAMGWYRQAPGKERELVAAISWSGGSTYYADSVKGRFTISRDNAKNTVYLQMNSLKPEDTAVYYCAATGRRSGFYYWGQGTQVTVSS”: the “polyreactivity (PSR sort gate)” value is reported as “high polyreactivity”.

Consider “QVQLVESGGGLVQAGGSLRLSCAASGSIFDGNALGWYRQAPGKERELVAAISYRGGSTYYADSVKGRFTISRDNAKNTVYLQMNSLKPEDTAVYYCAAGSISTPGRGVDKPDPYDYWGQGTQVTVSS”, for which the “polyreactivity (PSR sort gate)” value is listed as “low polyreactivity”.

Take “QVQLVESGGGLVQAGGSLRLSCAASGSTFRSNVMGWYRQAPGKERELVAAITSSGGSTYYADSVKGRFTISRDNAKNTVYLQMNSLKPEDTAVYYCAVDYYYGFDWGQGTQVTVSS”: the “polyreactivity (PSR sort gate)” value is reported as “low polyreactivity”.

With “QVQLVESGGGLVQAGGSLRLSCAAYGFIFGGNAMGWYRQAPGKERELVAAITARSGSTYYADSVKGRFTISRDNAKNTVYLQMNSLKPEDTAVYYCATPVYRSTYEYDYWGQGTQVTVSS”, the “polyreactivity (PSR sort gate)” value is recorded as “low polyreactivity”. In the case of “QVQLVESGGGLVQAGGSLRLSCAASGSTFNWNAMGWYRQAPGKERELVAAITSSGARTRYADSVKGRFTISRDNAKNTVYLQMNSLKPEDTAVYYCAAYVYISPSGYYYWGQGTQVTVSS”, the “polyreactivity (PSR sort gate)” value is on record as “high polyreactivity”. As for “QVQIVESGGGLVQAGGSLRLSCAASGSIFYYYAMGWYRQAPGNERELVADISISGGSTYYADSVKGRFTISRDTAKNTVYLQMNSQKPEDTAVYYSAATSTYRSYLEYDYWGQGTQVTVSS”, the “polyreactivity (PSR sort gate)” value is on record as “low polyreactivity”. In the case of “QVQLVESGGGLVQAGGSLRLSCAASGSTFPLYAMGWYRQAPGKERELVATISWGDGSTYYADSVKGRFTISRDTAKNTVYLQMNSLNPEETAVYYCAEDEYPDATTDATDKYYYWGQGTQVTVST”, the “polyreactivity (PSR sort gate)” value is “low polyreactivity”.

As to “QVQLVESGGGLVQAGGSLRLTCAASGSIFYAYAMGWYRQAPGKERELVAAISGRGGSTYYADSVTGRFTISRDNAKKTVYFQMNSLKPEDTAVYYCAAERRTFYGLGVHYWGQVTQVTVSS”, the “polyreactivity (PSR sort gate)” value is listed as “high polyreactivity”. Regarding “QDQLVESGGGLVQAGGSLRLSCAASGRIFYPYVMGWYRQAPGKERELVAAISDSTGSTYYADSVKGRFTISRDNAKNTVYLQMNSLKPEDTAVYYWGQGTQVTVSS”, the “polyreactivity (PSR sort gate)” value is recorded as “low polyreactivity”.

In the case of “QVHLVESGGGLVKAGGSLRLSCAASGRTFPYNAMGWYRQAPGKERELVAAISSGGSTNYADSVKGRFTISRDNAKNTVYLQMNSLKPEDTAVYYCATKYQRRPYRYYYWGQGTQVTVSS”, the “polyreactivity (PSR sort gate)” value is listed as “low polyreactivity”. Turning to “QVQLVESGGGLVQAGGSLRLSCAASGRILRYYAMGWYRQAPGKERELVASITSGGSTYYADSVKGRFTISRDNAKNTVYLQMNSLKQEDTAVYYCAADPVYLKKLLYYVGQAYYYWGQGTQVTVSS”, the “polyreactivity (PSR sort gate)” value is listed as “high polyreactivity”. Then “QVQLVESGGGLVQAGGSLRLSCAASGRTFWLYAMGWYRQATGKERELVAGISRGGRTYYADSVKGRFTISRDNAKNTVYLQMNSLKPEDTAVYYGAADRYTVRMDCWGQGTQVTVSS”, with “high polyreactivity”; and “QVQLVESGGGLVQAGGSLRLSCATSRSTFVLYAMGWYRQAPGKERELDAAISGGATTTYADSVKGRFTISRDNAKNTVYLQMNSLKPEVTAVYYCAADFSTYVVSGAALDYWGQGTQVTLSS”, with “low polyreactivity”. In the case of “QVQLVESGGGLVQAGGSLRLSCAASGFIFVPYAMGWYRQAPGKERELVASITYTGGSTYYADSVKGRFTISRDNAKNTVYLQMNSLKPEDTAVYYCASRYQYWRLHMDYWGQGTPVTVSS”, the “polyreactivity (PSR sort gate)” value is reported as “low polyreactivity”. In the case of “QVQLVESGGGLVQAGGSLRLSCAASGLIFSVYGMGWYRQAPGKERELVAAISSRGGSTYYADSVKGRFTISRDLAKNTVYLQMNSLKQEDTAVYYCAARSNYRMDYWGQGTQVTVSS”, the “polyreactivity (PSR sort gate)” value is recorded as “high polyreactivity”. Consider “QVQLVESGGGLVQAGGSLRLSCAASGLTSKFYAMGWYRQAPGKERELVAAISGSGGSTYYADSVKGRFTISRDKAKNTVYLQMNSLKPEDTAVYYCAARYFGLRYYYWGQGTQVTVSS”, for which the “polyreactivity (PSR sort gate)” value was “high polyreactivity”. On to “QVQLVESVGGLVQAGGILRLSCAASGRTFTLNAMGWYRQAPGKERELVATISRRGGSTYYADSVKGRFTISRDNAKNTVYLQMISLKPEDTAVYDCNVDRLGKRYDNWGQGSQVTVSS”, for which the “polyreactivity (PSR sort gate)” value was “low polyreactivity”. For the sequence “QVQLVESRGGLVQAGGSLRLSCAASGRTRFYAMGRYIQAPGKERELVAVINASGDSTYYADSVKGRFTISRDNAKITVYLQMNSLKPEDTAVYYCAGDNRGEYDYWGQGTQVTVSS”, the “polyreactivity (PSR sort gate)” value is given as “low polyreactivity”. With “QVQLVESGGGLVQAGGSLRLSCAASGLIFTPYPMGWYRQAPGKERELVAAISVSGGRTYYADSVKGRITISRDNEKNTVYLQMNSLKPEDTAVYYCAASDRYGGRDYWGQGTQVTVSS”, the “polyreactivity (PSR sort gate)” value was “high polyreactivity”.

For the sequence “QVQLVETGGGLVQAGGSLRLSCAASGRTFEGNAMGWYRQAPGKERELVAAISGSGGRTYYADSVKGRFTISRDNAKYTVYLQMNSLKPEDTAVYYETLYSVYNPRRFNYWGQGTQVTVSS”, the “polyreactivity (PSR sort gate)” value is given as “high polyreactivity”. “QVQLVESGGGLVQAGGSLRLSCAASGSIFVNYAMGWSRQAPGKERELVAAISRDGGRTYYADSVKGRFTISRDNAKNTVYLQMNSLKPEDTAVYYCNAVIPSTAYYRYGYWGQGTQVTVSS”: the “polyreactivity (PSR sort gate)” value is recorded as “high polyreactivity”.

As for “QFQLVESGGGLVQAGGSLRLSCAASGSTFGVYALGWYRQAPGKARELVATINSGGSTNYADSVKRRFTSSRDNAKNTVYLQMTSLTPEDTAVYYCAAGPFWQDFYVYEYDYWGQGTQVTVSS”, the “polyreactivity (PSR sort gate)” value is recorded as “low polyreactivity”. Take “QVQLVESGGGLVQAGGSLRLSCAPSGRIFSYNTMGWYRQAAGKERELVAAISSSGGSTYYADSVKGRFTISRDNAKNTFYLQMNSLKPEDTALYYCNAVGRFSTRREYWGQGTQVTVSS”: the “polyreactivity (PSR sort gate)” value was “high polyreactivity”.

Consider “QVQLVESGGGLVQAGGSLRLSCAASGSTFYVYAMGWYRQAPGKERELVAAIDRGSSTYADSVKGRFTISRDNAKNTVYLQMNSLKPEDTAVYYCAAEKERDEEYDYWGQGTQVTVSS”, for which the “polyreactivity (PSR sort gate)” value is given as “low polyreactivity”. For the sequence “QVQLVESCGGLVQAGGSLRLSCAASGFIFWCYTMGWYIQAPGKERELVAAITGSGGSTYYADSVKGRFTISRDNAKNTVNFQMNSLKPEDTAVYYCNAVSAYKWEYYYWGQGTLVTVSS”, the “polyreactivity (PSR sort gate)” value is “high polyreactivity”.

“QVQHVETGGGLVQAGGSLRLSCAASGFIFAEYAMGWYRQAPGKETEEVAAITSGGSTSYADSVKGRFTISRDNAKNTVYLQMNSLKPEDTAVYYCAATWYYLYNVWKHWYEYGYWGQGTQVTVSS”: the “polyreactivity (PSR sort gate)” value is on record as “low polyreactivity”. With “QVQLVESGGGLVQAGGSLRLSCAASGYTFFYMGSYRQAPGKEREFVAVITYSGGSTYYADSVKGRFTISRDNAKNTVYLQLNSLKPEDTAVYYCAAAVWHYGRPGYLDSGYDYWGQGTQVTVSS” the entry was “low polyreactivity”.

In the case of “QVQLVESGGGLVQAGGSLRISCAASGRTVAIYAMGWYIKAPGKEREFVAAISWSGGDTYYADSVKGRFTISRDNAKNTVYLQMNSLKPVDPAVYYCAARDNDYEGRDLQYELDYWGQGTQVTVSS”, the “polyreactivity (PSR sort gate)” value is reported as “low polyreactivity”. “QVQLVESGGGLVQAGGSLRLSCAASGRTFPLNAMGWYRQAPGKERELVAAITWSGGRTYYADSVKGRFTISRDNAKNTVYLQMNSLKPEDTAVYYCATDRYAYKLYDYWGQGTQVTVSS”: the “polyreactivity (PSR sort gate)” value is given as “low polyreactivity”. Then “QVQLVESGGGLVQAGGSLRLSCAASGRTFWANAMGWYRQAPGKERELVAAITSGGSTNYADSVKGRFTISRDNAKNTVYLQMNSLKPEDTAVYYCAAAINRYRRTFNYWGQGTQVTVSS”, with “high polyreactivity”.
